Our source for the IC50 values is article PMC7641127, “MCL1 binds and negatively regulates the transcriptional function of tumor suppressor p73” (Cell Death & Disease, 2020).

The assay has as its target T1, recombinant MCL1 (human, UniProt Q07820 1-350).
T1 construct: MCL1, human; Uniformly 15N-labelled for NMR; also called 15N MCL1; source: E. coli BL21 (DE3), purified (nickel chromatography, gel filtration)
As to the kind of experiment: fluorescence polarisation; competitive FPA: 50 nM recombinant MCL1, 10 nM F-BAK, titration of unlabeled p73 peptide or p73DBD, 1× PBS pH 7.4. The conditions noted are these: both partners purified.

No end group written: not given here. A value given as a limit tells only on which side of the number the result lay.

T1 sequence (Q07820 whole entry): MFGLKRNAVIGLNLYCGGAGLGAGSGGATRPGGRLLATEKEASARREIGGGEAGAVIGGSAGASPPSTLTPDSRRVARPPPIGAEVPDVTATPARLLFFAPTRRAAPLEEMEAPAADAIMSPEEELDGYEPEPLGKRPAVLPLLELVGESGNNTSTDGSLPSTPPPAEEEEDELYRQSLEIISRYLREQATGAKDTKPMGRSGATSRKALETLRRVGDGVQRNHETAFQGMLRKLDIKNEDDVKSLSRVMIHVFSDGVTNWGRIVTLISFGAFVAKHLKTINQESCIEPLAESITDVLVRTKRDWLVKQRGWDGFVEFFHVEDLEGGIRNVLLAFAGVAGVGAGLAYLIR

DEDTYYLQVRG-NH2 [p73TD-derived peptide β1]: the IC50 (in general, the concentration at which inhibition is half-maximal) was more than 10 µM.

For PQPLVDSYRQQQQLLQR [p73TD-derived peptide α2], the IC50 was more than 10 µM.
